Molecular target: myosin VI (mouse (endogenous in mouse brain)) (UniProt Q64331)
Experiment: co-IP

UniProt Q64331, sequence (Q64331 whole entry): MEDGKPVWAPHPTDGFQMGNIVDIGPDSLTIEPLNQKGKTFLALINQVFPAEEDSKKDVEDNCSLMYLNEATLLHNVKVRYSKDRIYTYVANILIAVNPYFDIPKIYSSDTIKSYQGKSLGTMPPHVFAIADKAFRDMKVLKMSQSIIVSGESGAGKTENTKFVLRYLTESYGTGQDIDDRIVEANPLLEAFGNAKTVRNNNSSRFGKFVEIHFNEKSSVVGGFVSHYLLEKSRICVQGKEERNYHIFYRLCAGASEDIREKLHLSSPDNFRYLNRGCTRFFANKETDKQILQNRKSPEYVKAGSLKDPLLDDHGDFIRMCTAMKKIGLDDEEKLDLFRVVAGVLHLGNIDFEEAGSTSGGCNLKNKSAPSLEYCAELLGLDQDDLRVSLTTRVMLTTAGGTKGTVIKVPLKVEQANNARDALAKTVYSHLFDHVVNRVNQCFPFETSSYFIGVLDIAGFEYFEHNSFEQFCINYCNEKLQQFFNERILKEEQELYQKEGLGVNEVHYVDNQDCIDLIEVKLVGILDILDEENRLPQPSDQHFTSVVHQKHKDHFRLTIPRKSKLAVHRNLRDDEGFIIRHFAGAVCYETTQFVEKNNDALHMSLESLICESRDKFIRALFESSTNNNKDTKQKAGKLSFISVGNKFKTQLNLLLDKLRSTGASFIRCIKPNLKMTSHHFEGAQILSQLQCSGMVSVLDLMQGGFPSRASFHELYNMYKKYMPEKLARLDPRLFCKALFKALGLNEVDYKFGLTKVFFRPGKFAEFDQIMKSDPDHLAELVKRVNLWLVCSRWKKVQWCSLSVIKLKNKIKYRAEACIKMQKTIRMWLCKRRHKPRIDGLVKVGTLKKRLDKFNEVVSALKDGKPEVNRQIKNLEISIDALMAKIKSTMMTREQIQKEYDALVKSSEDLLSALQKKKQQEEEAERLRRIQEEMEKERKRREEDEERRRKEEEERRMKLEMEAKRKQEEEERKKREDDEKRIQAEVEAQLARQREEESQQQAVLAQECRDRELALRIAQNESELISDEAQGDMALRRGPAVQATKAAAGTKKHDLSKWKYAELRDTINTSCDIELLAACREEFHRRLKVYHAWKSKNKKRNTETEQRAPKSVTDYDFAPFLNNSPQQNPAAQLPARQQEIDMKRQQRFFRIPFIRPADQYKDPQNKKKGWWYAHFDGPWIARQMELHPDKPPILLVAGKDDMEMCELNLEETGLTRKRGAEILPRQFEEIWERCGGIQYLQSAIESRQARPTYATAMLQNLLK

Substance “dynein intermediate chain (from UniProt O88485 1-628) (natural protein)” has a DIC coprecipitation normalized to myosin VI immunoprecipitation (wt lysate) of 1.44.

Reference: publication PMC8099778
